Measurements from US20030113711A1, “Protein kinase peptide substrate determination using peptide libraries” (priority 2001, published 2003).

Legend:
Test in all cases: Kinetic evaluation of peptide substrates, varying peptide at fixed ATP (phosphocellulose filter, [γ-33P]ATP)
Type in all cases: biochemical
Details in all cases: other: ErbB-2; Km for peptide; ATP concentration >10 × Km (200 μM ATP); pH 7.5; 23.0 °C
[1] = test system: CC[C@H](C)[C@H](NC(=O)[C@H](CCC(=O)O)NC(=O)[C@H](CCC(=O)O)NC(=O)[C@H](Cc1c[nH]cn1)NC(=O)[C@H](C)NC(=O)[C@H](CCCNC(=N)N)NC(=O)CCCCCNC(=O)CCCC[C@@H]1SC[C@@H]2NC(=O)N[C@@H]21)C(=O)N[C@@H](Cc1ccc(O)cc1)C(=O)N[C@@H](Cc1c[nH]cn1)C(=O)N[C@@H](Cc1ccccc1)C(=O)N[C@@H](Cc1ccccc1)C(=O)N[C@@H](Cc1ccccc1)C(=O)N[C@@H](C)C(=O)N[C@@H](CCCCN)C(=O)N[C@@H](CCCCN)C(=O)N[C@@H](CCCCN)C(N)=O
Procedure: (§1) Peptide sequences identified as preferred substrates for ErbB-2 using the methods described in Laboratory Example 3 were synthesized. The kcat and Km values for each peptide were determined as follows, using the kinases ErbB-2, ErbB-4, and EGFR.
(§2) Reactions were performed in 96-well polystyrene round bottom plates in a final volume of 45 μL. Reaction mixtures contained 50 mM MOPS, pH 7.5, 10 mM MnCl2, 1 mM dithiothreitol (DTT), 200 μM ATP, 1.0 μCi [γ-^33P] ATP, and varying concentrations of peptide. The reaction was initiated by adding the purified kinase of interest and halted after 10 minutes at 23° C. (room temperature) by adding 45 μL of 0.5% phosphoric acid in water. A 75 μL aliquot of the halted reaction mixture was then transferred to MAPH phosphocellulose filter plates (Millipore, Bedford, Mass.). The plates were filtered three times with 0.2 mL of 0.5 percent phosphoric acid. Scintillation cocktail (50 μL) was added to each well, and the plate was analyzed by counting in a Packard TOPCOUNT® scintillation counter (Packard Instrument Co., Meriden, Conn.). In these assays, the concentration of ATP was greater than ten-fold higher than the Km for ATP, which permitted the kinetic data to be treated as a pseudo-first-order reaction with varying peptide concentration. All experiments were performed in quadruplicate and the average value for each data point was analyzed. The Km and Vmax values were calculated by fitting the data to the Henri-Michaelis-Menten equation by non-linear regression using SIGMAPLOT® (SPSS Science, Chicago, Ill.). kcat values were calculated using the Vmax value, and are based on the protein concentration of the enzyme preparation and an estimate of purity determined from an evaluation of a Coomassie Blue stained SDS-polyacrylamide gel.

[2] = test system: CC[C@H](C)[C@H](NC(=O)[C@H](CCC(=O)O)NC(=O)[C@H](Cc1c[nH]cn1)NC(=O)[C@H](Cc1c[nH]cn1)NC(=O)[C@H](C)NC(=O)[C@H](CCCNC(=N)N)NC(=O)CCCCCNC(=O)CCCC[C@@H]1SC[C@@H]2NC(=O)N[C@@H]21)C(=O)N[C@@H](Cc1ccc(O)cc1)C(=O)N[C@@H](Cc1c[nH]cn1)C(=O)N[C@@H](Cc1ccccc1)C(=O)N[C@@H](Cc1ccccc1)C(=O)N[C@@H](Cc1ccccc1)C(=O)N[C@@H](C)C(=O)N[C@@H](CCCCN)C(=O)N[C@@H](CCCCN)C(=O)N[C@@H](CCCCN)C(N)=O
Procedure: as §1, §2

[3] = test system: CC[C@H](C)[C@H](NC(=O)[C@H](Cc1ccccc1)NC(=O)[C@H](Cc1c[nH]cn1)NC(=O)[C@H](Cc1ccc(O)cc1)NC(=O)[C@H](CCC(=O)O)NC(=O)[C@H](CCC(=O)O)NC(=O)[C@H](CCC(=O)O)NC(=O)[C@H](Cc1c[nH]cn1)NC(=O)[C@H](C)NC(=O)[C@H](CCCNC(=N)N)NC(=O)CCCCCNC(=O)CCCC[C@@H]1SC[C@@H]2NC(=O)N[C@@H]21)C(=O)N[C@@H](Cc1ccccc1)C(=O)N[C@@H](C)C(=O)N[C@@H](CCCCN)C(=O)N[C@@H](CCCCN)C(=O)N[C@@H](CCCCN)C(N)=O
Procedure: as §1, §2

[4] = test system: C[C@H](NC(=O)[C@H](CCCNC(=N)N)NC(=O)CCCCCNC(=O)CCCC[C@@H]1SC[C@@H]2NC(=O)N[C@@H]21)C(=O)N[C@@H](Cc1c[nH]cn1)C(=O)N[C@@H](CCC(=O)O)C(=O)N[C@@H](CCC(=O)O)C(=O)N[C@@H](CCC(=O)O)C(=O)N[C@@H](Cc1ccc(O)cc1)C(=O)N[C@@H](Cc1c[nH]cn1)C(=O)N[C@@H](Cc1ccccc1)C(=O)N[C@@H](Cc1ccccc1)C(=O)N[C@@H](Cc1ccccc1)C(=O)N[C@@H](C)C(=O)N[C@@H](CCCCN)C(=O)N[C@@H](CCCCN)C(=O)N[C@@H](CCCCN)C(N)=O
Procedure: as §1, §2

[5] = test system: C[C@H](NC(=O)[C@H](CCCNC(=N)N)NC(=O)CCCCCNC(=O)CCCC[C@@H]1SC[C@@H]2NC(=O)N[C@@H]21)C(=O)N[C@@H](Cc1c[nH]cn1)C(=O)N[C@@H](Cc1c[nH]cn1)C(=O)N[C@@H](CCC(=O)O)C(=O)N[C@@H](CCC(=O)O)C(=O)N[C@@H](Cc1ccc(O)cc1)C(=O)N[C@@H](Cc1c[nH]cn1)C(=O)N[C@@H](Cc1ccccc1)C(=O)N[C@@H](Cc1ccccc1)C(=O)N[C@@H](Cc1ccccc1)C(=O)N[C@@H](C)C(=O)N[C@@H](CCCCN)C(=O)N[C@@H](CCCCN)C(=O)N[C@@H](CCCCN)C(N)=O
Procedure: as §1, §2

## ErbB-2 (Homo sapiens)
[1]
  Km: 11.4 µM
  kcat: 0.0967 s⁻¹
  kcat/Km: 8500 M⁻¹ s⁻¹
[2]
  Km: 66.6 µM
  kcat: 0.173 s⁻¹
  kcat/Km: 2670 M⁻¹ s⁻¹
[3]
  Km: 8.6 µM
  kcat: 0.0333 s⁻¹
  kcat/Km: 3830 M⁻¹ s⁻¹
[4]
  Km: 6.8 µM
  kcat: 0.0127 s⁻¹
  kcat/Km: 1830 M⁻¹ s⁻¹
[5]
  Km: 14.7 µM
  kcat: 0.09 s⁻¹
  kcat/Km: 6170 M⁻¹ s⁻¹
